This test has as its target T1, B-cell maturation antigen (BCMA) (human, UniProt Q02223 1-184).
T1 sequence (looked up): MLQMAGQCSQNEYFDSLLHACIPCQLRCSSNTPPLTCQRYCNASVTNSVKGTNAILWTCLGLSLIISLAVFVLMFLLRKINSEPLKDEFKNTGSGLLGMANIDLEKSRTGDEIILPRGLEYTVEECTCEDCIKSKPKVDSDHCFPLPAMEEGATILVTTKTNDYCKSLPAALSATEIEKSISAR
Kind of test: cell-based or functional assay.

The values that follow come from patent publication US20230340137A1 (published 2023).

B1: PF-06863135 (bispecific antibody, human IgG2)
heavy 1: EVQLLESGGGLVQPGGSLRLSCAASGFTFSSYPMSWVRQAPGKGLEWVSAIGGSGGSLPYADIVKGRFTISRDNSKNTLYLQMNSLRAEDTAVYYCARYWPMDIWGQGTLVTVSSASTKGPSVFPLAPCSRSTSESTAALGCLVKDYFPEPVTVSWNSGALTSGVHTFPAVLQSSGLYSLSSVVTVPSSNFGTQTYTCNVDHKPSNTKVDKTVERKCEVECPECPAPPVAGPSVFLFPPKPKDTLMISRTPEVTCVVVAVSHEDPEVQFNWYVDGVEVHNAKTKPREEQFNSTFRVVSVLTVVHQDWLNGKEYKCKVSNKGLPSSIEKTISKTKGQPREPQVYTLPPSREEMTKNQVSLTCEVKGFYPSDIAVEWESNGQPENNYKTTPPMLDSDGSFFLYSKLTVDKSRWQQGNVFSCSVMHEALHNHYTQKSLSLSPGK
light 1: EIVLTQSPGTLSLSPGERATLSCRASQSVSSSYLAWYQQKPGQAPRLLMYDASIRATGIPDRFSGSGSGTDFTLTISRLEPEDFAVYYCQQYQSWPLTFGQGTKVEIKRTVAAPSVFIFPPSDEQLKSGTASVVCLLNNFYPREAKVQWKVDNALQSGNSQESVTEQDSKDSTYSLSSTLTLSKADYEKHKVYACEVTHQGLSSPVTKSFNRGEC
heavy 2: EVQLVESGGGLVQPGGSLRLSCAASGFTFSDYYMTWVRQAPGKGLEWVAFIRNRARGYTSDHNPSVKGRFTISRDNAKNSLYLQMNSLRAEDTAVYYCARDRPSYYVLDYWGQGTTVTVSSASTKGPSVFPLAPCSRSTSESTAALGCLVKDYFPEPVTVSWNSGALTSGVHTFPAVLQSSGLYSLSSVVTVPSSNFGTQTYTCNVDHKPSNTKVDKTVERKCRVRCPRCPAPPVAGPSVFLFPPKPKDTLMISRTPEVTCVVVAVSHEDPEVQFNWYVDGVEVHNAKTKPREEQFNSTFRVVSVLTVVHQDWLNGKEYKCKVSNKGLPSSIEKTISKTKGQPREPQVYTLPPSREEMTKNQVSLTCLVKGFYPSDIAVEWESNGQPENNYKTTPPMLDSDGSFFLYSRLTVDKSRWQQGNVFSCSVMHEALHNHYTQKSLSLSPGK
light 2: not shown
Consider B1, for which the “EC50 of cell viability (killing) of H929-Luc cells co-cultured with human CD3+ T cells, 72 hr, luminescence; with GSI” value is 0.0055 nM; the “EC50 of cell viability (killing) of H929-Luc cells co-cultured with human CD3+ T cells, 72 hr, luminescence; without GSI” value stood at 0.167 nM; the “EC50 of cell viability (killing) of Molp8-Luc cells co-cultured with human CD3+ T cells, 72 hr, luminescence; with GSI” value stood at 0.0202 nM; the “EC50 of cell viability (killing) of Molp8-Luc cells co-cultured with human CD3+ T cells, 72 hr, luminescence; without GSI” value is 0.108 nM. The “EC50 of cell viability (killing) of OPM2-Luc cells co-cultured with human CD3+ T cells, 72 hr, luminescence; with GSI” value stood at 0.0033 nM; the “EC50 of cell viability (killing) of OPM2-Luc cells co-cultured with human CD3+ T cells, 72 hr, luminescence; without GSI” value was found to be 0.0528 nM; the “EC50 of cell viability (killing) of RPMI8226-Luc cells co-cultured with human CD3+ T cells, 72 hr, luminescence; with GSI” value is 0.0017 nM; the “EC50 of cell viability (killing) of RPMI8226-Luc cells co-cultured with human CD3+ T cells, 72 hr, luminescence; without GSI” value is 0.0092 nM.
